In patent US20260275344:

Test system: PiggyBac transposase
Assay: cell_activity

## ITR-EF1a-GFP-ITR cssDNA
K562 day 21, donor alone ~2.37%
  activity: 39.3 % GFP+ cells
Primary human T cells day 14, donor alone ~0.16%
  activity: 7.54 % GFP+ cells
